Laboratory results published in publication PMC5870055, “Structural and Mechanistic Analysis of the Choline Sulfatase from Sinorhizobium melliloti: A Class I Sulfatase Specific for an Alkyl Sulfate Ester” (Journal of Molecular Biology, 2018).

How the values were obtained:
[1] = molecular target: T1, SmCS (Sinorhizobium meliloti choline sulfatase, BetC) (Sinorhizobium meliloti, UniProt O69787); assay: product inhibition kinetics; type: biochemical; details: competitive; range over the pH values tested, single values in Fig. S11; 25 °C
T1 sequence (O69787 1-512): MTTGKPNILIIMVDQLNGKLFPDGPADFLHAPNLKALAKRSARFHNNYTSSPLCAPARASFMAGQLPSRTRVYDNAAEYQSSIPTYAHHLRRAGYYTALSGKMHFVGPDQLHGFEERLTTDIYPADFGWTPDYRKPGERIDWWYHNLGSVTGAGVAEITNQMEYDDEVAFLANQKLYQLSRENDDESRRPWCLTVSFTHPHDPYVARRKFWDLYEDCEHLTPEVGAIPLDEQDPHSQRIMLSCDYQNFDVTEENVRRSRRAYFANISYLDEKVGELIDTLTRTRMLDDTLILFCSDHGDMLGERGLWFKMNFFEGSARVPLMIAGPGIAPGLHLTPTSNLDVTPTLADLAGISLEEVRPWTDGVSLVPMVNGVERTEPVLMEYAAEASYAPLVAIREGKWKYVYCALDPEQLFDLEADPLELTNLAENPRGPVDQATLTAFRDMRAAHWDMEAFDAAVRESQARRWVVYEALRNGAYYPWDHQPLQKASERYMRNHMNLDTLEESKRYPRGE
From the text: product inhibition kinetics on SmCS (Sinorhizobium meliloti choline sulfatase, BetC) | The reaction product choline can act as a competitive inhibitor, albeit a relatively weak one

[2] = tested on: C[N+](C)(C)CCOS(=O)(=O)[O-]; assay: purified protein; details: pH 7.6; 25.0 °C
[3] = tested on: O=[N+]([O-])c1ccc(OS(=O)(=O)O)cc1; assay: purified protein; details: 100 mM Tris-HCl pH 7.6, 25 °C
purified protein [4] = substrate: COP(=O)(O)Oc1ccc([N+](=O)[O-])cc1; assay: purified protein; details: 100 mM imidazole-HCl pH 6.0, 25 °C
purified protein [5] = substrate: C[N+](C)(C)CCOP(=O)([O-])O; assay: purified protein; details: 100 mM Tris-HCl pH 7.6, 25 °C, no metal added
purified protein [6] = substrate: C[N+](C)(C)CCOS(=O)(=O)[O-]; assay: purified protein; details: 100 mM Tris-HCl pH 7.6, 25 °C
purified protein [7] = substrate: O=[N+]([O-])c1ccc(OS(=O)(=O)O)cc1; assay: purified protein
[8] = 100 mM imidazole-HCl pH 6.0, 25 °C
[9] = 100 mM Tris-HCl pH 7.6, 25 °C, made without FGE

Molecule: C[N+](C)(C)CCO [choline]
- KIC [1]: ~ 52–6.3 mM

Molecule: SmCS (Sinorhizobium meliloti choline sulfatase, BetC) (Sinorhizobium meliloti 1021; DEL501-512)
- Km [2]: (1.09 ± 0.01) × 10^-2 M
- kcat [2]: 0.021 ± 0.002 s⁻¹
- kcat/Km [2]: 1.93 ± 0.01 M⁻¹ s⁻¹
- Km [3]: (9.0 ± 0.1) × 10^-2 M
- kcat [3]: 0.0159 ± 0.0001 s⁻¹
- kcat/Km [3]: 0.178 ± 0.004 M⁻¹ s⁻¹

B1: SmCS (Sinorhizobium meliloti choline sulfatase, BetC) (Sinorhizobium meliloti 1021) (protein)
chain: MTTGKPNILIIMVDQLNGKLFPDGPADFLHAPNLKALAKRSARFHNNYTSSPLCAPARASFMAGQLPSRTRVYDNAAEYQSSIPTYAHHLRRAGYYTALSGKMHFVGPDQLHGFEERLTTDIYPADFGWTPDYRKPGERIDWWYHNLGSVTGAGVAEITNQMEYDDEVAFLANQKLYQLSRENDDESRRPWCLTVSFTHPHDPYVARRKFWDLYEDCEHLTPEVGAIPLDEQDPHSQRIMLSCDYQNFDVTEENVRRSRRAYFANISYLDEKVGELIDTLTRTRMLDDTLILFCSDHGDMLGERGLWFKMNFFEGSARVPLMIAGPGIAPGLHLTPTSNLDVTPTLADLAGISLEEVRPWTDGVSLVPMVNGVERTEPVLMEYAAEASYAPLVAIREGKWKYVYCALDPEQLFDLEADPLELTNLAENPRGPVDQATLTAFRDMRAAHWDMEAFDAAVRESQARRWVVYEALRNGAYYPWDHQPLQKASERYMRNHMNLDTLEESKRYPRGE
- kcat (purified protein [4]): > 0.004 s⁻¹
- Km (purified protein [5]): (2.1 ± 0.2) × 10^-3 M
- kcat (purified protein [5]): 0.0267 ± 0.0001 s⁻¹
- kcat/Km (purified protein [5]): 13 ± 1 M⁻¹ s⁻¹
- Km (purified protein [6]; no metal added): (5.0 ± 0.6) × 10^-4 M
- kcat (purified protein [6]; no metal added): 2.4 ± 0.2 s⁻¹
- kcat/Km (purified protein [6]; no metal added): 4800 ± 500 M⁻¹ s⁻¹
- Km (purified protein [7]; [8]): (1.9 ± 0.2) × 10^-2 M
- kcat (purified protein [7]; [8]): 0.22 ± 0.01 s⁻¹
- kcat/Km (purified protein [7]; [8]): 12 ± 2 M⁻¹ s⁻¹

B2: SmCS (Sinorhizobium meliloti choline sulfatase, BetC) (Sinorhizobium meliloti 1021; C54S) (protein)
chain: MTTGKPNILIIMVDQLNGKLFPDGPADFLHAPNLKALAKRSARFHNNYTSSPLSAPARASFMAGQLPSRTRVYDNAAEYQSSIPTYAHHLRRAGYYTALSGKMHFVGPDQLHGFEERLTTDIYPADFGWTPDYRKPGERIDWWYHNLGSVTGAGVAEITNQMEYDDEVAFLANQKLYQLSRENDDESRRPWCLTVSFTHPHDPYVARRKFWDLYEDCEHLTPEVGAIPLDEQDPHSQRIMLSCDYQNFDVTEENVRRSRRAYFANISYLDEKVGELIDTLTRTRMLDDTLILFCSDHGDMLGERGLWFKMNFFEGSARVPLMIAGPGIAPGLHLTPTSNLDVTPTLADLAGISLEEVRPWTDGVSLVPMVNGVERTEPVLMEYAAEASYAPLVAIREGKWKYVYCALDPEQLFDLEADPLELTNLAENPRGPVDQATLTAFRDMRAAHWDMEAFDAAVRESQARRWVVYEALRNGAYYPWDHQPLQKASERYMRNHMNLDTLEESKRYPRGE
- Km (purified protein [6]; made without FGE): (9.4 ± 0.1) × 10^-3 M
- kcat (purified protein [6]; made without FGE): 0.0112 ± 0.0002 s⁻¹
- kcat/Km (purified protein [6]; made without FGE): 1.19 ± 0.02 M⁻¹ s⁻¹
- Km (purified protein [7]; [9]): (3.9 ± 0.2) × 10^-2 M
- kcat (purified protein [7]; [9]): 7.3e-05 ± 1e-06 s⁻¹
- kcat/Km (purified protein [7]; [9]): 0.00189 ± 6e-05 M⁻¹ s⁻¹

B3: SmCS (Sinorhizobium meliloti choline sulfatase, BetC) (Sinorhizobium meliloti 1021; K309L) (protein)
chain: MTTGKPNILIIMVDQLNGKLFPDGPADFLHAPNLKALAKRSARFHNNYTSSPLCAPARASFMAGQLPSRTRVYDNAAEYQSSIPTYAHHLRRAGYYTALSGKMHFVGPDQLHGFEERLTTDIYPADFGWTPDYRKPGERIDWWYHNLGSVTGAGVAEITNQMEYDDEVAFLANQKLYQLSRENDDESRRPWCLTVSFTHPHDPYVARRKFWDLYEDCEHLTPEVGAIPLDEQDPHSQRIMLSCDYQNFDVTEENVRRSRRAYFANISYLDEKVGELIDTLTRTRMLDDTLILFCSDHGDMLGERGLWFLMNFFEGSARVPLMIAGPGIAPGLHLTPTSNLDVTPTLADLAGISLEEVRPWTDGVSLVPMVNGVERTEPVLMEYAAEASYAPLVAIREGKWKYVYCALDPEQLFDLEADPLELTNLAENPRGPVDQATLTAFRDMRAAHWDMEAFDAAVRESQARRWVVYEALRNGAYYPWDHQPLQKASERYMRNHMNLDTLEESKRYPRGE
- Km (purified protein [7]; 100 mM Tris-HCl pH 7.6, 25 °C): (8.9 ± 2.7) × 10^-2 M
- kcat (purified protein [7]; 100 mM Tris-HCl pH 7.6, 25 °C): 1.6e-05 ± 5e-06 s⁻¹
- kcat/Km (purified protein [7]; 100 mM Tris-HCl pH 7.6, 25 °C): 0.000176 ± 1e-06 M⁻¹ s⁻¹

B4: SmCS (Sinorhizobium meliloti choline sulfatase, BetC) (Sinorhizobium meliloti 1021; E386L) (protein)
chain: MTTGKPNILIIMVDQLNGKLFPDGPADFLHAPNLKALAKRSARFHNNYTSSPLCAPARASFMAGQLPSRTRVYDNAAEYQSSIPTYAHHLRRAGYYTALSGKMHFVGPDQLHGFEERLTTDIYPADFGWTPDYRKPGERIDWWYHNLGSVTGAGVAEITNQMEYDDEVAFLANQKLYQLSRENDDESRRPWCLTVSFTHPHDPYVARRKFWDLYEDCEHLTPEVGAIPLDEQDPHSQRIMLSCDYQNFDVTEENVRRSRRAYFANISYLDEKVGELIDTLTRTRMLDDTLILFCSDHGDMLGERGLWFKMNFFEGSARVPLMIAGPGIAPGLHLTPTSNLDVTPTLADLAGISLEEVRPWTDGVSLVPMVNGVERTEPVLMEYAALASYAPLVAIREGKWKYVYCALDPEQLFDLEADPLELTNLAENPRGPVDQATLTAFRDMRAAHWDMEAFDAAVRESQARRWVVYEALRNGAYYPWDHQPLQKASERYMRNHMNLDTLEESKRYPRGE
- kcat (purified protein [6]): > 0.012 s⁻¹
- kcat/Km (purified protein [6]): 0.81 ± 0.01 M⁻¹ s⁻¹
- Km (purified protein [7]; 100 mM Tris-HCl pH 7.6, 25 °C): (5.7 ± 0.4) × 10^-2 M
- kcat (purified protein [7]; 100 mM Tris-HCl pH 7.6, 25 °C): 0.76 ± 0.03 s⁻¹
- kcat/Km (purified protein [7]; 100 mM Tris-HCl pH 7.6, 25 °C): 13 ± 1 M⁻¹ s⁻¹

B5: SmCS (Sinorhizobium meliloti choline sulfatase, BetC) (Sinorhizobium meliloti 1021; H104A) (protein)
chain: MTTGKPNILIIMVDQLNGKLFPDGPADFLHAPNLKALAKRSARFHNNYTSSPLCAPARASFMAGQLPSRTRVYDNAAEYQSSIPTYAHHLRRAGYYTALSGKMAFVGPDQLHGFEERLTTDIYPADFGWTPDYRKPGERIDWWYHNLGSVTGAGVAEITNQMEYDDEVAFLANQKLYQLSRENDDESRRPWCLTVSFTHPHDPYVARRKFWDLYEDCEHLTPEVGAIPLDEQDPHSQRIMLSCDYQNFDVTEENVRRSRRAYFANISYLDEKVGELIDTLTRTRMLDDTLILFCSDHGDMLGERGLWFKMNFFEGSARVPLMIAGPGIAPGLHLTPTSNLDVTPTLADLAGISLEEVRPWTDGVSLVPMVNGVERTEPVLMEYAAEASYAPLVAIREGKWKYVYCALDPEQLFDLEADPLELTNLAENPRGPVDQATLTAFRDMRAAHWDMEAFDAAVRESQARRWVVYEALRNGAYYPWDHQPLQKASERYMRNHMNLDTLEESKRYPRGE
- Km (purified protein [6]): (1.33 ± 0.01) × 10^-2 M
- kcat (purified protein [6]): 0.0347 ± 0.0001 s⁻¹
- kcat/Km (purified protein [6]): 2.6 ± 0.02 M⁻¹ s⁻¹
